Positions of bridges follow the written chain, without caps; N, C: chain ends. No end group written: not given here.
Columns and labels:
hBMECs = assay: Peptide cytotoxicity assay (XTT); assay type: cell-based, human; conditions: positive control; hBMECs; untreated = 100% viability
Procedure: The toxicity of peptides was determined by the XTT test (AppliChem, USA) as per the manufacturer’s instructions. Details are presented in Supplementary Method S15. […]
Cytotoxicity assay. hBMECs were cultured in 96-well TPP tissue culture plates (Sigma) in supplemented EBM-2 medium (Lonza) to obtain ~70% confluency (as described in Supplementary Method S1). The peptides in concentrations of 1 µM, 2 µM, 4 µM, and 6 µM (diluted in 100 µL of EBM-2 medium supplemented only with 10% FBS, 10 mM HEPES and 1 ng/mL bFGF; Sigma) were added and incubated for 24 h at 37°C in a humid atmosphere of 5% CO2. Untreated cells served as a negative control (100% viability). For positive control, cells treated with 0.01% Triton X-100 were used. After incubation, the mixture of XTT and activation reagent (5:0.1 [v/v], 50 µL each well) was added to each well and incubated for an additional 3 h at 37°C in a humid atmosphere of 5% CO2. The absorbance was measured at 450 nm. The assay was performed in replicates. The viability (%) of endothelial cells was calculated using the formula: Cell viability (%) = [(A - xA ) × 100] / (xA -

[1] = target: proteins of hBMECs (human (endogenous in hBMECs)); assay: ELISA; proteins of hBMECs coated into microtiter wells, rDIII (2 µg, printed as 0.15 nM) added without pre-blocking; negative control (no rDIII) subtracted
[2] = target: T1, 7-mer cyclic peptide CP2 (ACX7CGGGS form of CTKTDVHFC) (disulfide 2-10 (inferred)); assay: ELISA; peptides covalently coated through their C-terminus in Nunc CovaLink NH plates (EDC plus sulfo-NHS), blocked with 0.5% BSA in PBS, incubated with rDIII, detected with HisProbe-HRP; negative control (no rDIII) subtracted; conditions: both partners purified
T1 construct: additional alanine at the N-terminus (ACX7CGGGS); peptide of phage clone CC2; C-terminal linker; source: E. coli SHuffle T5, purified; N-terminal tag cleaved with enterokinase and removed on nickel beads; not shown: His6, N-terminal, cleaved; 28 aa tag, N-terminal, cleaved
T1 peptide: ACTKTDVHFCGGGS

[3] = target: T2, 7-mer cyclic peptide CP4 (ACX7CGGGS form of CIHSSTRAC) (disulfide 2-10 (inferred)); assay: as above; conditions: both partners purified
T2 construct: additional alanine at the N-terminus (ACX7CGGGS); peptide of phage clone CC4; C-terminal linker; source: E. coli SHuffle T5, purified; N-terminal tag cleaved with enterokinase and removed on nickel beads; not shown: His6, N-terminal, cleaved; 28 aa tag, N-terminal, cleaved
T2 peptide: ACIHSSTRACGGGS

[4] = target: T3, 7-mer cyclic peptide CP6 (ACX7CGGGS form of CMQTQRAHC) (disulfide 2-10 (inferred)); assay: as above; conditions: both partners purified
T3 construct: additional alanine at the N-terminus (ACX7CGGGS); peptide of phage clone CC6; C-terminal linker; source: E. coli SHuffle T5, purified; N-terminal tag cleaved with enterokinase and removed on nickel beads; not shown: His6, N-terminal, cleaved; 28 aa tag, N-terminal, cleaved
T3 peptide: ACMQTQRAHCGGGS

[5] = target: T4, 7-mer cyclic peptide CP16 (ACX7CGGGS form of CLAQSHPLC) (disulfide 2-10 (inferred)); assay: as above; conditions: both partners purified
T4 construct: additional alanine at the N-terminus (ACX7CGGGS); peptide of phage clone CC16; C-terminal linker; also called C16; source: E. coli SHuffle T5, purified; N-terminal tag cleaved with enterokinase and removed on nickel beads; not shown: His6, N-terminal, cleaved; 28 aa tag, N-terminal, cleaved
T4 peptide: ACLAQSHPLCGGGS

[6] = target: T5, 12-mer linear peptide LP3 (X12GGGS form of SGVYKVAYDWQH); assay: as above; conditions: both partners purified
T5 construct: peptide of phage clone LC3; C-terminal linker; source: E. coli SHuffle T5, purified; N-terminal tag cleaved with enterokinase and removed on nickel beads; not shown: His6, N-terminal, cleaved; 28 aa tag, N-terminal, cleaved
T5 peptide: SGVYKVAYDWQHGGGS

[7] = target: T6, 7-mer cyclic peptide CP12 (ACX7CGGGS form of CTYENHRTC) (disulfide 2-10 (inferred)); assay: as above; conditions: both partners purified
T6 construct: additional alanine at the N-terminus (ACX7CGGGS); peptide of phage clone CC12; C-terminal linker; source: E. coli SHuffle T5, purified; N-terminal tag cleaved with enterokinase and removed on nickel beads; not shown: His6, N-terminal, cleaved; 28 aa tag, N-terminal, cleaved
T6 peptide: ACTYENHRTCGGGS

[8] = target: T7, 7-mer cyclic peptide CP15 (ACX7CGGGS form of CDPRHSKFC) (disulfide 2-10 (inferred)); assay: as above; conditions: both partners purified
T7 construct: additional alanine at the N-terminus (ACX7CGGGS); peptide of phage clone CC15; C-terminal linker; source: E. coli SHuffle T5, purified; N-terminal tag cleaved with enterokinase and removed on nickel beads; not shown: His6, N-terminal, cleaved; 28 aa tag, N-terminal, cleaved
T7 peptide: ACDPRHSKFCGGGS

[9] = target: T8, 7-mer cyclic peptide CP7 (ACX7CGGGS form of CTNANHYFC) (disulfide 2-10 (inferred)); assay: as above; conditions: both partners purified
T8 construct: additional alanine at the N-terminus (ACX7CGGGS); peptide of phage clone CC7; C-terminal linker; source: E. coli SHuffle T5, purified; N-terminal tag cleaved with enterokinase and removed on nickel beads; not shown: His6, N-terminal, cleaved; 28 aa tag, N-terminal, cleaved
T8 peptide: ACTNANHYFCGGGS

Triton X-100 [reference compound]
cell viability (XTT) (hBMECs): < 2.8%

recombinant domain III (DIII) of the envelope (E) glycoprotein of West Nile virus (domain or fragment)
A450 [1]: 1.06

B1: recombinant domain III (DIII) of the envelope (E) glycoprotein of West Nile virus (domain or fragment)
chain: GTTYGVCSKAFKFLGTPADTGHGTVVLELQYTGTDGPCKVPISSVASLNDLTPVGRLVTVNPFVSVATANAKVLIELEPPFGDSYIVVGRGEQQINHHWHK
A450 [2]: > 1.9 | A450 [3]: > 1.9 | A450 [4]: > 1.9 | A450 [5]: > 1.9 | A450 [6]: 2.56 | A450 [7]: > 1.9 | A450 [8]: > 1.9 | A450 [9]: > 1.9

Reference: article PMC8505397, “Development of peptides targeting receptor binding site of the envelope glycoprotein to contain the West Nile virus infection” (Scientific Reports, 2021)
